Source: the supplement of paper PMC9112550, “Optimization of the antimicrobial peptide Bac7 by deep mutational scanning” (BMC Biology, 2022)

Test system: Escherichia coli TOP10
Assay: shrunken log2 fold change of peptide-encoding DNA abundance (4.5 h post-induction vs induction); higher = less antimicrobial activity (less host growth inhibition)
Settings: time post-induction: 4.5 h; library: site-saturation at positions 5, 18, 19, 20
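Also: peptides expressed intracellularly from a pBAD plasmid library in pooled LB shake-flask culture, induced with 0.3% L-arabinose, DNA abundance read by NGS, three biological replicates, DESeq2 with apeglm shrinkage.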

RRIRRRPPRLPRPRPRPVWYPRP
shrunken log2 fold change: 0.18

RRIRHRPPRLPRPRPRPERQPRP
shrunken log2 fold change: -0.0882

RRIRSRPPRLPRPRPRPMQLPRP
shrunken log2 fold change: 0.115

RRIRMRPPRLPRPRPRPLIYPRP
shrunken log2 fold change: -0.0335

RRIRYRPPRLPRPRPRPYLRPRP
shrunken log2 fold change: -0.00962

RRIRWRPPRLPRPRPRPKPFPRP
shrunken log2 fold change: 0.323

RRIRWRPPRLPRPRPRPWASPRP
shrunken log2 fold change: 0.014

RRIRYRPPRLPRPRPRPLCSPRP
shrunken log2 fold change: -0.0549

RRIRLRPPRLPRPRPRPNRFPRP
shrunken log2 fold change: -0.404

RRIRERPPRLPRPRPRPLLGPRP
shrunken log2 fold change: -0.144

RRIRLRPPRLPRPRPRPANTPRP
shrunken log2 fold change: -0.124

RRIRSRPPRLPRPRPRPQWWPRP
shrunken log2 fold change: 0.0138

RRIRMRPPRLPRPRPRPWLFPRP
shrunken log2 fold change: 0.457

RRIRYRPPRLPRPRPRPTYKPRP
shrunken log2 fold change: -1.17

RRIRTRPPRLPRPRPRPTNGPRP
shrunken log2 fold change: -0.0801

RRIRIRPPRLPRPRPRPVAKPRP
shrunken log2 fold change: -0.0157

RRIRVRPPRLPRPRPRPCKPPRP
shrunken log2 fold change: -0.692

RRIRSRPPRLPRPRPRPAPKPRP
shrunken log2 fold change: 0.569

RRIRFRPPRLPRPRPRPAPPPRP
shrunken log2 fold change: 0.736

RRIRNRPPRLPRPRPRPRLWPRP
shrunken log2 fold change: 0.0283

RRIRERPPRLPRPRPRPRIMPRP
shrunken log2 fold change: -0.712

RRIRPRPPRLPRPRPRPEVEPRP
shrunken log2 fold change: -0.00972

RRIRHRPPRLPRPRPRPCLGPRP
shrunken log2 fold change: 0.0158

RRIRGRPPRLPRPRPRPSTSPRP
shrunken log2 fold change: 0.315

RRIRMRPPRLPRPRPRPEAWPRP
shrunken log2 fold change: 2.15

RRIRKRPPRLPRPRPRPWTEPRP
shrunken log2 fold change: -0.172

RRIRKRPPRLPRPRPRPCAKPRP
shrunken log2 fold change: 0.54

RRIRERPPRLPRPRPRPETTPRP
shrunken log2 fold change: 0.165

RRIRARPPRLPRPRPRPGWNPRP
shrunken log2 fold change: 0.545

RRIRFRPPRLPRPRPRPMHRPRP
shrunken log2 fold change: -0.0791

RRIRQRPPRLPRPRPRPWLRPRP
shrunken log2 fold change: -0.112

RRIRTRPPRLPRPRPRPYWMPRP
shrunken log2 fold change: -0.707

RRIRVRPPRLPRPRPRPFWDPRP
shrunken log2 fold change: -0.0687

RRIRKRPPRLPRPRPRPFTWPRP
shrunken log2 fold change: 1.37

RRIRIRPPRLPRPRPRPHELPRP
shrunken log2 fold change: -0.156

RRIRRRPPRLPRPRPRPACSPRP
shrunken log2 fold change: 0.377

RRIRYRPPRLPRPRPRPFSYPRP
shrunken log2 fold change: -0.145

RRIRWRPPRLPRPRPRPNRCPRP
shrunken log2 fold change: 0.0312

RRIRNRPPRLPRPRPRPHGMPRP
shrunken log2 fold change: -0.0652

RRIRWRPPRLPRPRPRPWNHPRP
shrunken log2 fold change: -0.0518

RRIRVRPPRLPRPRPRPQWPPRP
shrunken log2 fold change: 0.336

RRIRGRPPRLPRPRPRPMHPPRP
shrunken log2 fold change: -0.104

RRIRMRPPRLPRPRPRPEDNPRP
shrunken log2 fold change: 0.0325

RRIRSRPPRLPRPRPRPGCPPRP
shrunken log2 fold change: 0.18

RRIRHRPPRLPRPRPRPPSFPRP
shrunken log2 fold change: -0.234

RRIRLRPPRLPRPRPRPKGGPRP
shrunken log2 fold change: 0.01

RRIRIRPPRLPRPRPRPMGGPRP
shrunken log2 fold change: 0.38

RRIRDRPPRLPRPRPRPNSDPRP
shrunken log2 fold change: -0.272

RRIRHRPPRLPRPRPRPLPSPRP
shrunken log2 fold change: 0.393

RRIRPRPPRLPRPRPRPVLLPRP
shrunken log2 fold change: 0.00267

RRIRHRPPRLPRPRPRPETKPRP
shrunken log2 fold change: -0.0652

RRIRERPPRLPRPRPRPDSGPRP
shrunken log2 fold change: -0.533

RRIRLRPPRLPRPRPRPRGSPRP
shrunken log2 fold change: 0.16

RRIRHRPPRLPRPRPRPTADPRP
shrunken log2 fold change: 0.202

RRIRHRPPRLPRPRPRPKTMPRP
shrunken log2 fold change: -0.0912

RRIRFRPPRLPRPRPRPEHTPRP
shrunken log2 fold change: -0.213

RRIRGRPPRLPRPRPRPSPEPRP
shrunken log2 fold change: 0.498

RRIRCRPPRLPRPRPRPRAEPRP
shrunken log2 fold change: 0.539

RRIRSRPPRLPRPRPRPCMCPRP
shrunken log2 fold change: -0.0077

RRIRPRPPRLPRPRPRPAPAPRP
shrunken log2 fold change: 0.425

RRIRFRPPRLPRPRPRPDFFPRP
shrunken log2 fold change: -0.027

RRIRKRPPRLPRPRPRPTRFPRP
shrunken log2 fold change: 0.436

RRIRTRPPRLPRPRPRPEHRPRP
shrunken log2 fold change: -0.0227

RRIRVRPPRLPRPRPRPSWVPRP
shrunken log2 fold change: -0.32

RRIRCRPPRLPRPRPRPSVIPRP
shrunken log2 fold change: -0.0544

RRIRLRPPRLPRPRPRPYADPRP
shrunken log2 fold change: -0.135

RRIRLRPPRLPRPRPRPYKAPRP
shrunken log2 fold change: -0.112

RRIRYRPPRLPRPRPRPEQNPRP
shrunken log2 fold change: 0.00317

RRIRYRPPRLPRPRPRPNGKPRP
shrunken log2 fold change: -0.186

RRIRVRPPRLPRPRPRPPSLPRP
shrunken log2 fold change: 1.99

RRIRVRPPRLPRPRPRPSFLPRP
shrunken log2 fold change: -0.666

RRIRKRPPRLPRPRPRPLYDPRP
shrunken log2 fold change: -0.0647

RRIRPRPPRLPRPRPRPHNIPRP
shrunken log2 fold change: -0.546

RRIRSRPPRLPRPRPRPRPIPRP
shrunken log2 fold change: -0.0533

RRIRLRPPRLPRPRPRPMMQPRP
shrunken log2 fold change: -0.223

RRIRSRPPRLPRPRPRPKPAPRP
shrunken log2 fold change: 0.555

RRIRFRPPRLPRPRPRPVLKPRP
shrunken log2 fold change: -0.24

RRIRWRPPRLPRPRPRPQKEPRP
shrunken log2 fold change: 0.0282

RRIRPRPPRLPRPRPRPEMPPRP
shrunken log2 fold change: 0.762

RRIRGRPPRLPRPRPRPDVPPRP
shrunken log2 fold change: 0.0136

RRIRSRPPRLPRPRPRPNMEPRP
shrunken log2 fold change: -0.154

RRIRMRPPRLPRPRPRPRVSPRP
shrunken log2 fold change: 0.0315

RRIRARPPRLPRPRPRPSRCPRP
shrunken log2 fold change: 0.228

RRIRNRPPRLPRPRPRPRIYPRP
shrunken log2 fold change: -0.0955

RRIRERPPRLPRPRPRPPCCPRP
shrunken log2 fold change: 0.00664

RRIRHRPPRLPRPRPRPPTTPRP
shrunken log2 fold change: -0.175

RRIRARPPRLPRPRPRPTKRPRP
shrunken log2 fold change: 0.247

RRIRSRPPRLPRPRPRPGEWPRP
shrunken log2 fold change: -0.0156

RRIRQRPPRLPRPRPRPYSVPRP
shrunken log2 fold change: -0.00968

RRIRQRPPRLPRPRPRPAGSPRP
shrunken log2 fold change: 0.0285

RRIRMRPPRLPRPRPRPYKLPRP
shrunken log2 fold change: 0.00411

RRIRQRPPRLPRPRPRPCDGPRP
shrunken log2 fold change: -0.26

RRIRYRPPRLPRPRPRPISYPRP
shrunken log2 fold change: -0.325

RRIRIRPPRLPRPRPRPRADPRP
shrunken log2 fold change: 0.0888

RRIRWRPPRLPRPRPRPPGQPRP
shrunken log2 fold change: 0.123

RRIRSRPPRLPRPRPRPLKCPRP
shrunken log2 fold change: -0.0843

RRIRTRPPRLPRPRPRPRQKPRP
shrunken log2 fold change: 0.0911

RRIRMRPPRLPRPRPRPTNFPRP
shrunken log2 fold change: -0.0912

RRIRMRPPRLPRPRPRPCDDPRP
shrunken log2 fold change: 0.553

RRIRARPPRLPRPRPRPWCMPRP
shrunken log2 fold change: -0.223

RRIRYRPPRLPRPRPRPEDPPRP
shrunken log2 fold change: -0.0591

RRIRGRPPRLPRPRPRPAFDPRP
shrunken log2 fold change: 0.763

RRIRCRPPRLPRPRPRPVCDPRP
shrunken log2 fold change: -0.245

RRIRDRPPRLPRPRPRPYYCPRP
shrunken log2 fold change: 0.0391

RRIRVRPPRLPRPRPRPNQGPRP
shrunken log2 fold change: -0.129

RRIRLRPPRLPRPRPRPRWDPRP
shrunken log2 fold change: 0.141

RRIRGRPPRLPRPRPRPWLRPRP
shrunken log2 fold change: 0.306

RRIRPRPPRLPRPRPRPTQCPRP
shrunken log2 fold change: -0.194

RRIRSRPPRLPRPRPRPGMDPRP
shrunken log2 fold change: 0.0734

RRIRGRPPRLPRPRPRPRMYPRP
shrunken log2 fold change: 0.0954

RRIRKRPPRLPRPRPRPPKTPRP
shrunken log2 fold change: 0.0147

RRIRVRPPRLPRPRPRPMPRPRP
shrunken log2 fold change: 0.24

RRIRARPPRLPRPRPRPSSWPRP
shrunken log2 fold change: 0.158

RRIRERPPRLPRPRPRPIHKPRP
shrunken log2 fold change: -0.424

RRIRERPPRLPRPRPRPRKEPRP
shrunken log2 fold change: -0.0305

RRIRCRPPRLPRPRPRPMDTPRP
shrunken log2 fold change: 0.0459

RRIRWRPPRLPRPRPRPHQSPRP
shrunken log2 fold change: 0.0383

RRIRHRPPRLPRPRPRPKHWPRP
shrunken log2 fold change: 0.26

RRIRFRPPRLPRPRPRPNEIPRP
shrunken log2 fold change: 0.232

RRIRRRPPRLPRPRPRPVKIPRP
shrunken log2 fold change: 0.266

RRIRCRPPRLPRPRPRPGTQPRP
shrunken log2 fold change: 0.00157

RRIRNRPPRLPRPRPRPPMMPRP
shrunken log2 fold change: 0.0507

RRIRWRPPRLPRPRPRPWAPPRP
shrunken log2 fold change: 0.479

RRIRKRPPRLPRPRPRPLKMPRP
shrunken log2 fold change: 0.0436

RRIRHRPPRLPRPRPRPVPHPRP
shrunken log2 fold change: -0.031

RRIRPRPPRLPRPRPRPSTFPRP
shrunken log2 fold change: 0.147

RRIRPRPPRLPRPRPRPVQRPRP
shrunken log2 fold change: 0.0521

RRIRHRPPRLPRPRPRPMNLPRP
shrunken log2 fold change: -0.0351

RRIRFRPPRLPRPRPRPQDAPRP
shrunken log2 fold change: -0.0849

RRIRVRPPRLPRPRPRPQNMPRP
shrunken log2 fold change: -0.465

RRIRVRPPRLPRPRPRPCCLPRP
shrunken log2 fold change: -0.241

RRIRFRPPRLPRPRPRPWHKPRP
shrunken log2 fold change: -0.413

RRIRIRPPRLPRPRPRPLNDPRP
shrunken log2 fold change: -0.351

RRIRRRPPRLPRPRPRPGPVPRP
shrunken log2 fold change: 0.332

RRIRYRPPRLPRPRPRPNQFPRP
shrunken log2 fold change: -0.533

RRIRVRPPRLPRPRPRPLHSPRP
shrunken log2 fold change: -0.0269

RRIRMRPPRLPRPRPRPQNMPRP
shrunken log2 fold change: -0.631

RRIRMRPPRLPRPRPRPVYLPRP
shrunken log2 fold change: -0.683

RRIRERPPRLPRPRPRPRNLPRP
shrunken log2 fold change: -0.514

RRIRYRPPRLPRPRPRPHFGPRP
shrunken log2 fold change: 0.0439

RRIRMRPPRLPRPRPRPVCFPRP
shrunken log2 fold change: 0.126

RRIRYRPPRLPRPRPRPMFEPRP
shrunken log2 fold change: -0.315

RRIRSRPPRLPRPRPRPMPKPRP
shrunken log2 fold change: 0.0763

RRIRGRPPRLPRPRPRPTRIPRP
shrunken log2 fold change: 0.901

RRIRKRPPRLPRPRPRPTAHPRP
shrunken log2 fold change: 0.513

RRIRNRPPRLPRPRPRPAARPRP
shrunken log2 fold change: 0.161

RRIRKRPPRLPRPRPRPCYAPRP
shrunken log2 fold change: 0.083

RRIRCRPPRLPRPRPRPVPYPRP
shrunken log2 fold change: -0.533

RRIRGRPPRLPRPRPRPFYCPRP
shrunken log2 fold change: -0.0638

RRIRARPPRLPRPRPRPQTVPRP
shrunken log2 fold change: 0.129
